Assay results: patent publication US20200247894A1
Where two headings read alike, the source gives them in different places. One block for each substance: values may come before it.

Tests used:
[1] = target: human IL-2Rγ endogenously expressed on NK-92 and Jurkat cells (human) (UniProt P31785); assay: flow cytometry, 10 ug/ml isotype control, NK-92 cells (endogenous human IL-2Rg)
[2] = target: mouse IL-2Rγ endogenously expressed on MC/9 cells (mouse) (UniProt P34902); assay: flow cytometry, 10 ug/ml isotype control, MC/9 cells (endogenous mouse IL-2Rg)
[3] = target: human IL-2Rγ expressed on cells (human) (UniProt P31785); assay: flow cytometry, isotype control at 10 µg/ml, MFI over unstained; upper end (NK-92 by Table 9-1)
[4] = target: human IL-2Rγ endogenously expressed on NK-92 and Jurkat cells (human) (UniProt P31785); assay: flow cytometry, 10 ug/ml isotype control, Jurkat cells (endogenous human IL-2Rg)
[5] = target: human IL-2Rγ endogenously expressed on NK-92 and Jurkat cells (human) (UniProt P31785); assay: flow cytometry, 10 ug/ml isotype control, NK-92 cells (endogenous human IL-2Rg); remark: listed apart in the source
[6] = target: human IL-2Rγ expressed on cells (human) (UniProt P31785); assay: flow cytometry, isotype control at 10 µg/ml, MFI over unstained; lower end (Jurkat by Table 9-1)
[7] = target: human IL-2Rγ expressed on cells (human) (UniProt P31785); assay: flow cytometry on NK-92 cells, isotype control at 10 µg/ml, MFI over unstained; the end 2 belongs to HEK293 (negative control cells) by Table 9-2
[8] = target: human IL-2Rγ endogenously expressed on NK-92 and Jurkat cells (human) (UniProt P31785); assay: flow cytometry, secondary antibody alone (no primary), NK-92 cells (endogenous human IL-2Rg)
[9] = target: mouse IL-2Rγ endogenously expressed on MC/9 cells (mouse) (UniProt P34902); assay: flow cytometry, secondary antibody alone (no primary), MC/9 cells (endogenous mouse IL-2Rg)
[10] = target: human IL-2Rγ endogenously expressed on NK-92 and Jurkat cells (human) (UniProt P31785); assay: flow cytometry, secondary antibody alone (no primary), Jurkat cells (endogenous human IL-2Rg)
[11] = target: human IL-2Rγ endogenously expressed on NK-92 and Jurkat cells (human) (UniProt P31785); assay: flow cytometry, secondary antibody alone (no primary), NK-92 cells (endogenous human IL-2Rg); remark: listed apart in the source
[12] = target: human IL2Rγ (endogenously expressed on cells) (human) (UniProt P31785); assay: cell-based or functional assay
[13] = target: human IL2Rγ (endogenously expressed on cells) (human) (UniProt P31785); assay: cell-based or functional assay; remark: listed apart in the source

mouse IL-2Rγ endogenously expressed on MC/9 cells (mouse), sequence (P34902 23-369): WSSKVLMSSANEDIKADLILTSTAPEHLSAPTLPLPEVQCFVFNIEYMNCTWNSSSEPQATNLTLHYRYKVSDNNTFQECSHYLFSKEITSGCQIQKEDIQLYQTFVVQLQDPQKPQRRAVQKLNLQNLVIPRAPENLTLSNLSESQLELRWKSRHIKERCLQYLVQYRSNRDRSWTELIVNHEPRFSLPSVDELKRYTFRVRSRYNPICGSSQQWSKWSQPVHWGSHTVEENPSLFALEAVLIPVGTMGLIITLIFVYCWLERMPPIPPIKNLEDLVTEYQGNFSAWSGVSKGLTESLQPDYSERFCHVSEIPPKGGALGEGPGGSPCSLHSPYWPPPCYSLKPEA
human IL-2Rγ endogenously expressed on NK-92 and Jurkat cells (human), sequence (P31785 23-369): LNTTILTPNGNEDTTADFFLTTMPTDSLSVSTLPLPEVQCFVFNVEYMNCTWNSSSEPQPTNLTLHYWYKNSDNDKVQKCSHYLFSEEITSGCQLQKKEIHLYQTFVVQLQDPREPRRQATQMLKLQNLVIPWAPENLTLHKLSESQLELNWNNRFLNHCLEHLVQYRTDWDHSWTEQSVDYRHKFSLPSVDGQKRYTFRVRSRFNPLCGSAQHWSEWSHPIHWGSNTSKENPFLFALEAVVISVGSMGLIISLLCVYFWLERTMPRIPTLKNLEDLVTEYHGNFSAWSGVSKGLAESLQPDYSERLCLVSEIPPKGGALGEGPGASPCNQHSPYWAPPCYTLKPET
human IL2Rγ (endogenously expressed on cells) (human), sequence (P31785 23-369): as above
human IL-2Rγ expressed on cells (human), sequence (P31785 23-369): as above

Binding Ratio (Sample over unstained MFIs) [1]: 1 | Raw MFI [1]: 223 MFI | Binding Ratio (Sample over unstained MFIs) [2]: 1 | Raw MFI [2]: 196 MFI | binding ratio [3]: 13 | Binding Ratio (Sample over unstained MFIs) [4]: 1 | Raw MFI [4]: 92 MFI | Binding Ratio (Sample over unstained MFIs) [5]: 13 | Raw MFI [5]: 1890 MFI | binding ratio [6]: 1 | binding ratio [7]: 1
Substance: REGN1945 (antibody)

EC50; IL-9 dose response; NK92/hIL7R/STAT3-luc [12]: 0.033 nM | EC50; IL-9 dose response; NK92/hIL7R/STAT3-luc [13]: 0.02 nM
Substance: human IL-9 (from UniProt P15248 19-144) (ligand)

EC50; IL-15 dose response; NK92/hIL7R/STAT3-luc [12]: 0.23 nM | EC50; IL-15 dose response; NK92/hIL7R/STAT3-luc [13]: 0.15 nM
Substance: human IL-15 (from UniProt P40933 49-162) (ligand)

Continued, substance first:

Substance: anti-human antibody conjugated to allophycocyanin (APC) (Jackson ImmunoResearch, #109-136-170)
Binding Ratio (Sample over unstained MFIs) [8]: 1 | Raw MFI [8]: 210 MFI | Binding Ratio (Sample over unstained MFIs) [9]: 1 | Raw MFI [9]: 173 MFI | Binding Ratio (Sample over unstained MFIs) [10]: 1 | Raw MFI [10]: 80 MFI | Raw MFI [11]: 234 MFI

Substance: human IL-2 (from UniProt P60568 21-153) (ligand)
EC50; IL-2 dose response; NK92/hIL7R/STAT3-luc [12]: 0.045 nM | EC50; IL-2 dose response; NK92/hIL7R/STAT3-luc [13]: 0.033 nM

Substance: human IL-21 (from UniProt Q9HBE4 32-162) (ligand)
EC50; IL-21 dose response; NK92/hIL7R/STAT3-luc [12]: 0.006 nM | EC50; IL-21 dose response; NK92/hIL7R/STAT3-luc [13]: 0.0031 nM
